Source: paper PMC7210009
Read-outs that look alike come from different tables or passages of the source.

For “PFKL (phosphofructokinase, liver isoform): K272R”, which degradation_or_half_life (ubiquitination at K272) is on record?
The degradation_or_half_life was “decreases”.

With “PFKP (phosphofructokinase, platelet isoform): AKT inhibitor X (10 μM, 15 hrs)” as the substance, how does the expression_or_secretion (phosphorylation at S386) read?
The expression_or_secretion was “no change”.

Which degradation_or_half_life (ubiquitination at K281) does the source give for “PFKP (phosphofructokinase, platelet isoform): K281R” here?
Its degradation_or_half_life is “decreases”.

With “PFKP (phosphofructokinase, platelet isoform): S386A” as the substance, how does the degradation_or_half_life (phosphorylation at S386) read?
The degradation_or_half_life was “no change”.
